The target in the assay is T1, FVIII-155/VWF-031 heterodimer.
T1 construct: The two chains are held together by disulfide bonds between the Fc regions; also called FVIII155/VWF31 heterodimer; FVIII155:VWF31
Put plainly: Octet BLI, heterodimer immobilized on protein G sensor, FVIII in solution. As for the experimental part: For the assay, full length VWF was captured by using APS sensor. The binding of FVIIIFc and FVIII to the full-length VWF is shown at the lower left panel. The lack of binding of FVIIIY1680 (a mutant having no affinity for VWF) and FVIII:VWF heterodimer (FVIII155/VWF031) is shown at the lower right panel. […] The binding of the constructs to FVIII was measured.
The same experiment was performed in reverse orientation to determine if the D′D3 portion in the FVIII-VWF heterodimer can interact with other FVIII molecules not covalently attached to D′D3. […] Protein G alone with FVIII was used as control. These binding experiments confirmed that D′D3 in heterodimer can interact with only one FVIII molecule which is covalently attached to it and prevent FVIII from interacting with full length wild type VWF molecules.

T1 sequence (chain, as listed by the source): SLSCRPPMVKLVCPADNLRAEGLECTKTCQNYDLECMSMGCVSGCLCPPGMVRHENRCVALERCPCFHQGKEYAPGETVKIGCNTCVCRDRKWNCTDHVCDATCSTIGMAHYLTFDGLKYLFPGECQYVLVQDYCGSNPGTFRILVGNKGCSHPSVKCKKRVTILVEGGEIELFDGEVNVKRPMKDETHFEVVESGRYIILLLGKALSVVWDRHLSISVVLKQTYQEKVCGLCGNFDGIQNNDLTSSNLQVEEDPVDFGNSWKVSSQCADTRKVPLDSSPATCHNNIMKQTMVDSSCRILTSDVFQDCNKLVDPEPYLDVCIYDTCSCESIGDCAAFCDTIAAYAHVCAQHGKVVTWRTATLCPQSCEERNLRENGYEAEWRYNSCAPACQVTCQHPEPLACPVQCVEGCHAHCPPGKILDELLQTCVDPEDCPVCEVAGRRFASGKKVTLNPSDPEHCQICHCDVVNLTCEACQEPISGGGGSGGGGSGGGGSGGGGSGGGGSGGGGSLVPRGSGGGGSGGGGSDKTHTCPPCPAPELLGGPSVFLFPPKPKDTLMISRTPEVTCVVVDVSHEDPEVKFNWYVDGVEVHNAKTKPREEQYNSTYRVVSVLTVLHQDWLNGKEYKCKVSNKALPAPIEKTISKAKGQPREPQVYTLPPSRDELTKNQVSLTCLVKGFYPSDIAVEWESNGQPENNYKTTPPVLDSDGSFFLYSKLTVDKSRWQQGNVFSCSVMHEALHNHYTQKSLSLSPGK

B1: rFVIII (other)
chain: ATRRYYLGAVELSWDYMQSDLGELPVDARFPPRVPKSFPFNTSVVYKKTLFVEFTDHLFNIAKPRPPWMGLLGPTIQAEVYDTVVITLKNMASHPVSLHAVGVSYWKASEGAEYDDQTSQREKEDDKVFPGGSHTYVWQVLKENGPMASDPLCLTYSYLSHVDLVKDLNSGLIGALLVCREGSLAKEKTQTLHKFILLFAVFDEGKSWHSETKNSLMQDRDAASARAWPKMHTVNGYVNRSLPGLIGCHRKSVYWHVIGMGTTPEVHSIFLEGHTFLVRNHRQASLEISPITFLTAQTLLMDLGQFLLFCHISSHQHDGMEAYVKVDSCPEEPQLRMKNNEEAEDYDDDLTDSEMDVVRFDDDNSPSFIQIRSVAKKHPKTWVHYIAAEEEDWDYAPLVLAPDDRSYKSQYLNNGPQRIGRKYKKVRFMAYTDETFKTREAIQHESGILGPLLYGEVGDTLLIIFKNQASRPYNIYPHGITDVRPLYSRRLPKGVKHLKDFPILPGEIFKYKWTVTVEDGPTKSDPRCLTRYYSSFVNMERDLASGLIGPLLICYKESVDQRGNQIMSDKRNVILFSVFDENRSWYLTENIQRFLPNPAGVQLEDPEFQASNIMHSINGYVFDSLQLSVCLHEVAYWYILSIGAQTDFLSVFFSGYTFKHKMVYEDTLTLFPFSGETVFMSMENPGLWILGCHNSDFRNRGMTALLKVSSCDKNTGDYYEDSYEDISAYLLSKNNAIEPRSFSQNPPVLKRHQREITRTTLQSDQEEIDYDDTISVEMKKEDFDIYDEDENQSPRSFQKKTRHYFIAAVERLWDYGMSSSPHVLRNRAQSGSVPQFKKVVFQEFTDGSFTQPLYRGELNEHLGLLGPYIRAEVEDNIMVTFRNQASRPYSFYSSLISYEEDQRQGAEPRKNFVKPNETKTYFWKVQHHMAPTKDEFDCKAWAYFSDVDLEKDVHSGLIGPLLVCHTNTLNPAHGRQVTVQEFALFFTIFDETKSWYFTENMERNCRAPCNIQMEDPTFKENYRFHAINGYIMDTLPGLVMAQDQRIRWYLLSMGSNENIHSIHFSGHVFTVRKKEEYKMALYNLYPGVFETVEMLPSKAGIWRVECLIGEHLHAGMSTLFLVYSNKCQTPLGMASGHIRDFQITASGQYGQWAPKLARLHYSGSINAWSTKEPFSWIKVDLLAPMIIHGIKTQGARQKFSSLYISQFIIMYSLDGKKWQTYRGNSTGTLMVFFGNVDSSGIKHNIFNPPIIARYIRLHPTHYSIRSTLRMELMGCDLNSCSMPLGMESKAISDAQITASSYFTNMFATWSPSKARLHLQGRSNAWRPQVNNPKEWLQVDFQKTMKVTGVTTQGVKSLLTSMYVKEFLISSSQDGHQWTLFFQNGKVKVFQGNQDSFTPVVNSLDPPLLTRYLRIHPQSWVHQIALRMEVLGCEAQDLY
notes: also called wild type FVIII
As to B1, the binding result is “no binding”.

For the origin of these results see patent US20150023959A1 (BIOVERATIV THERAPEUTICS, published 2015).
